# Laboratory results as given in patent US20170233495.
# Target: All antibodies according to the invention, which were tested (Example 4)
row,Protein,"cleavage of fluorogenic peptide OmniMMP RED by MMP catalytic domain, antibody at 100 nM"
1,recombinant catalytic domain of human MMP12 (protein) GPVWRKHYITYRINNYTPDMNREDVDYAIRKAFQVWSNVTPLKFSKINTGMADILVVFARGAHGDFHAFDGKGGILAHAFGPGSGIGGDAHFDEDEFWTTHSGGTNLFLTAVHEIGHSLGLGHSSDPKAVMFPTYKYVDINTFRLSADDIRGIQSLYG,had no significant effect on the catalytic activity of the eight other human MMPs tested
2,recombinant catalytic domain of human MMP1 (protein) FVLTEGNPRWEQTHLTYRIENYTPDLPRADVDHAIEKAFQLWSNVTPLTFTKVSEGQADIMISFVRGDHRDNSPFDGPGGNLAHAFQPGPGIGGDAHFDEDERWTNNFREYNLHRVAAHELGHSLGLSHSTDIGALMYPSYTFSGDVQLAQDDIDGIQAIYGRSQNPVQP,had no significant effect on the catalytic activity of the eight other human MMPs tested
